Measured values published in patent CN116284353A (HUASONG SHANGHAI BIOMEDICAL TECH CO LTD, dated 2023).

Molecular target: T1, EV A71 VLP (Enterovirus A71, UniProt Q66478 2-862)
T1 construct: Multi-subunit particle
T1 sequence: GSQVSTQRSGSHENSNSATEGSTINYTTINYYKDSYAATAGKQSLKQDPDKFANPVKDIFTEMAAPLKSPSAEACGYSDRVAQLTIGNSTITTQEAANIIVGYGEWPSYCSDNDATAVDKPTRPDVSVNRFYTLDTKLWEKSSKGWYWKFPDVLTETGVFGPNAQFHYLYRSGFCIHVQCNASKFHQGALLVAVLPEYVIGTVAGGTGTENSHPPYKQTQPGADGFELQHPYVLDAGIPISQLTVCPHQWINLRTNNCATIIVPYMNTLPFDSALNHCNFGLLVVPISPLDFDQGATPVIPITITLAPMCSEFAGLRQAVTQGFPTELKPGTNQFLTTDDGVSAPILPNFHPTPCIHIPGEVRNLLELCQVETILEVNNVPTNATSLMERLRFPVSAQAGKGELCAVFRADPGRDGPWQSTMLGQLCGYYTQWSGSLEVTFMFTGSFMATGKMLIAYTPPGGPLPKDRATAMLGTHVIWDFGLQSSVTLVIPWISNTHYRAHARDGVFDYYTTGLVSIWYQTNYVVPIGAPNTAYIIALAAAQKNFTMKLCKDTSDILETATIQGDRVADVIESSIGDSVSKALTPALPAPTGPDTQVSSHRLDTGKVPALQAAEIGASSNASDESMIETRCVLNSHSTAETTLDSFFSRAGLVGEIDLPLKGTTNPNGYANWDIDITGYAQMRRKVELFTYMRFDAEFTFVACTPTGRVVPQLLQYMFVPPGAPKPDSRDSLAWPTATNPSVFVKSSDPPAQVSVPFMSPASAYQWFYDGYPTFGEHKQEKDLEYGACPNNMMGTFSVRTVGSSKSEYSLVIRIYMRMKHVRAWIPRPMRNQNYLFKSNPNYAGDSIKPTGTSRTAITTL
Assay: Western blot on denatured VLP

B1: 单克隆抗体3C4 (antibody, mouse IgG1, kappa, V domains shown)
VH: QVTLKESGPGILQPSQTLSLTCSFSGFSLSTSGMGVSWIRQPSGKGLEWLAHIWWDDDKRYNPALKSRLTISKDTSNNQVFLRIASVDTADTATYYCVRIGGYFWGQGTSVTVSS
VL: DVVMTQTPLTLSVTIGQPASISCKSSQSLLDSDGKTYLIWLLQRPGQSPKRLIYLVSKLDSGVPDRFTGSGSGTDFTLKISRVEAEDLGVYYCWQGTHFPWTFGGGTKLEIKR
notes: Mouse IgG1 kappa; also called 3C4单抗; 杂交瘤细胞株3C4
binding result: no binding (tested: 1μg/mL)
